The text below walks through data of patent US20190185537A1 (AstraZeneca / MedImmune, published 2019).

Holding throughout (assay): cell-based or functional assay
Assay [1] deals with mouse glucagon receptor (mouse, UniProt Q61606 27-485).
Assay [2] concerns the target rat glucagon receptor (rat, UniProt P30082 27-485).
Assay [3] concerns the target T1, mouse GLP-1 receptor (mouse, UniProt O35659 22-463).
T1 sequence (looked up): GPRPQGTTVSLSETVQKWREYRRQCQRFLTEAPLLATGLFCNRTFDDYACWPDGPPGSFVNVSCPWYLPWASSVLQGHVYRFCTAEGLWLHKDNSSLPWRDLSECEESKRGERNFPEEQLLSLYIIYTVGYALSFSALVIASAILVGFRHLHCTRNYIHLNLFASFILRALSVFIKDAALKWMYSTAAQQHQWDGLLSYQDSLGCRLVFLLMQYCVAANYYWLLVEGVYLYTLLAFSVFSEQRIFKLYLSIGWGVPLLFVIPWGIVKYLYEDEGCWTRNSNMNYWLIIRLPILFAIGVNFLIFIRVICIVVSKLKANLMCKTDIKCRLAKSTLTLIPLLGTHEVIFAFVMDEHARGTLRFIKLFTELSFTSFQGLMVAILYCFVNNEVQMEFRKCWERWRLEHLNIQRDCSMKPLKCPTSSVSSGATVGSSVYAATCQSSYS

For assay [4], the target named is T2, human GLP-1 receptor (human, UniProt P43220 24-463).
The target in assay [5] is T3, human glucagon receptor (human, UniProt P47871 26-477).
The target in assay [6] is T4, human glucose-dependent insulinotropic peptide (gastric inhibitory polypeptide) receptor (human, UniProt P48546 22-466).
T4 sequence (looked up): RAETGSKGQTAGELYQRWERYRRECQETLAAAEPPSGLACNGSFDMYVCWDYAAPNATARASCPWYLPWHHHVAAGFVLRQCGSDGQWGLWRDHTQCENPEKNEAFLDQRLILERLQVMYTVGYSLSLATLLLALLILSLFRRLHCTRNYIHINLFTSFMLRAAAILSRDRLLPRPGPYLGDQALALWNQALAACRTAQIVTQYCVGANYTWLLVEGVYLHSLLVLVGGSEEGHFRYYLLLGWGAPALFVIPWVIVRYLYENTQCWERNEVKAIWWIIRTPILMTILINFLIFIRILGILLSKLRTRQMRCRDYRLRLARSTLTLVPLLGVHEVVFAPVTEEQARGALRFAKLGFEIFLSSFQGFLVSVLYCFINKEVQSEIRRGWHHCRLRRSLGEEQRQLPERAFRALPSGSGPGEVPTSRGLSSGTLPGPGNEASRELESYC

Assay [7] concerns the target T2, human GLP-1 receptor. This is another data set of the same source.
Assay [8] has as its target T3, human glucagon receptor. This is another data set of the same source.
Assay [9] has as its target T4, human glucose-dependent insulinotropic …. This is another data set of the same source.
In assay [10] the target is T2, human GLP-1 receptor. The source holds these as a separate data set.
Assay [11] has as its target T3, human glucagon receptor. This is another data set of the same source.
The target in assay [12] is T5, human glucose-dependent insulinotropic peptide (gastric inhibitory polypeptide) receptor (human) (UniProt P48546).
T5 sequence (looked up): T4 sequence (looked up)

For assay [13], the target named is T2, human GLP-1 receptor. The source holds these as a separate data set.
Target sequence in this assay (P43220 24-463): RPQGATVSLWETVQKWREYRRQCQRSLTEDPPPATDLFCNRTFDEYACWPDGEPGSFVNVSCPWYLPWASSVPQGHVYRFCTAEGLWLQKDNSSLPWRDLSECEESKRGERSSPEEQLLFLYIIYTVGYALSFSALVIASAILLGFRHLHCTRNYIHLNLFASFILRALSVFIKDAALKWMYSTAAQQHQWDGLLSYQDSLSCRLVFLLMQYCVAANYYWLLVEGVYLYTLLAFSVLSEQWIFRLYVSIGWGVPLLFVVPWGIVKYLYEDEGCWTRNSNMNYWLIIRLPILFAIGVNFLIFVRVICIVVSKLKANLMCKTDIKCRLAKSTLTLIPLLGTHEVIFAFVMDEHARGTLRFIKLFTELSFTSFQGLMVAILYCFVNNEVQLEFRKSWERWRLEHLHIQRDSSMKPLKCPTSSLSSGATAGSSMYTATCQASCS

Where two headings read alike, the source gives them in different places. Numbered stars: 1 amine (or outer) side, 2 acyl side, 3 side chain; on linkers, the order of the positions; unused ones are H or OH. Side chains are listed from the residue outwards. Ends that are not written are not given here. * marks the point of attachment. γGlu = O=C(O)[C@H](CCC(=O)[*:2])N[*:1]; Palmitoyl = CCCCCCCCCCCCCCCC(=O)*

T3 sequence (P47871 26-477): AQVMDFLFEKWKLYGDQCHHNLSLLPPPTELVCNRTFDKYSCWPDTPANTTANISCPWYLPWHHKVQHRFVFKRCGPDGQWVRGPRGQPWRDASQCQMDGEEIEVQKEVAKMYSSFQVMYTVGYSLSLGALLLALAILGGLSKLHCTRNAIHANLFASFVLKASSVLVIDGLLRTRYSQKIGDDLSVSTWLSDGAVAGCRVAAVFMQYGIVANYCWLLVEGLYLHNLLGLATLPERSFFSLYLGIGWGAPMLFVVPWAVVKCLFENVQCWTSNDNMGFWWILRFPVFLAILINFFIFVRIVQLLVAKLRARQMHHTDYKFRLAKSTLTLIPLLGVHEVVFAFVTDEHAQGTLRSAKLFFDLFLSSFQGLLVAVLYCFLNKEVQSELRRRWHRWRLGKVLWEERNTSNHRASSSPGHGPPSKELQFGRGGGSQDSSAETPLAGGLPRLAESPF
rat glucagon receptor, sequence (P30082 27-485): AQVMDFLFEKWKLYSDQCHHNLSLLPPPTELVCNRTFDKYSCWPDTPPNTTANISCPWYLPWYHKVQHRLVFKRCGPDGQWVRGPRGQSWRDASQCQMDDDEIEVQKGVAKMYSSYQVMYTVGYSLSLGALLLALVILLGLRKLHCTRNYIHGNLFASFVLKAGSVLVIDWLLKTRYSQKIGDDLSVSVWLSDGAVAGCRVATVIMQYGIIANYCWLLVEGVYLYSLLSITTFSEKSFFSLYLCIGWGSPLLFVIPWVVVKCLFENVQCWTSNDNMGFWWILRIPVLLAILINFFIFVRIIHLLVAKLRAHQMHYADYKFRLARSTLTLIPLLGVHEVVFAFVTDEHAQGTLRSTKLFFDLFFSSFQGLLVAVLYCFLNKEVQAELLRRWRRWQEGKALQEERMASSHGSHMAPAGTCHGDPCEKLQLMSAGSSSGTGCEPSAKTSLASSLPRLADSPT
mouse glucagon receptor, sequence (Q61606 27-485): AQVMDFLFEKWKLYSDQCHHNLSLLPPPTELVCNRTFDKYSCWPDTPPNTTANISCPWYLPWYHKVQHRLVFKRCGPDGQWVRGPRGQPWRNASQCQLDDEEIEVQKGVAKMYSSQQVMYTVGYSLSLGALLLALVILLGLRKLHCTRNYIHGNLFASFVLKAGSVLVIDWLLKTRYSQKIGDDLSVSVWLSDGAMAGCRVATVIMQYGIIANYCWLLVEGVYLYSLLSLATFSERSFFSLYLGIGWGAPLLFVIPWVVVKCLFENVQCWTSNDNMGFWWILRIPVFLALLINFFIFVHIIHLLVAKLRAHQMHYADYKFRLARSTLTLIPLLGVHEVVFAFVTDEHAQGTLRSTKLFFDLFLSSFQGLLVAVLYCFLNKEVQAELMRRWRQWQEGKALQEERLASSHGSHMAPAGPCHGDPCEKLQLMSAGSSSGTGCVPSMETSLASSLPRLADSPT

On to HSQGTFTSDKSSYLDSRSARDFVAWLEAGG (X10 = K(gE-palm); C-terminal amide) [G865], for which the “cAMP EC50 (assay 2, 3.2% mouse serum albumin)” value worked out at 1.1 nM in [1] and 0.096 nM in [3]. Moreover, in [2], the “cAMP EC50 (assay 2, 3.2% rat serum albumin)” value turned out to be 87.1 nM. Besides, in assay [4], the “cAMP EC50 (assay 2, 4.4% human serum albumin)” value is 0.15 nM. Further, the entries for the “cAMP EC50 (assay 1)” value in assay [5], in [6] and in [7] were 0.0126 nM, 22 nM and 0.0083 nM, respectively.

B1: g848 (peptide)
peptide: HSQGTFTSDK([γGlu-Palmitoyl])SRYLDSERARDFVAWLEAGG-NH2
modifications: N-terminus assumed
SMILES: CCCCCCCCCCCCCCCC(=O)N[C@@H](CCC(=O)NCCCC[C@H](NC(=O)[C@H](CC(=O)O)NC(=O)[C@H](CO)NC(=O)[C@@H](NC(=O)[C@H](Cc1ccccc1)NC(=O)[C@@H](NC(=O)CNC(=O)[C@H](CCC(N)=O)NC(=O)[C@H](CO)NC(=O)[C@@H](N)Cc1c[nH]cn1)[C@@H](C)O)[C@@H](C)O)C(=O)N[C@@H](CO)C(=O)N[C@@H](CCCNC(=N)N)C(=O)N[C@@H](Cc1ccc(O)cc1)C(=O)N[C@@H](CC(C)C)C(=O)N[C@@H](CC(=O)O)C(=O)N[C@@H](CO)C(=O)N[C@@H](CCC(=O)O)C(=O)N[C@@H](CCCNC(=N)N)C(=O)N[C@@H](C)C(=O)N[C@@H](CCCNC(=N)N)C(=O)N[C@@H](CC(=O)O)C(=O)N[C@@H](Cc1ccccc1)C(=O)N[C@H](C(=O)N[C@@H](C)C(=O)N[C@@H](Cc1c[nH]c2ccccc12)C(=O)N[C@@H](CC(C)C)C(=O)N[C@@H](CCC(=O)O)C(=O)N[C@@H](C)C(=O)NCC(=O)NCC(N)=O)C(C)C)C(=O)O
B1: the “cAMP EC50 (assay 1)” value in assay [8] worked out at 0.000966 nM; in assay [9] it was 2.77 nM; in [10] it was 0.00942 nM.

B2: g731 (peptide)
peptide: HSQGTFTSDYSEYK([γGlu-Palmitoyl])DSRRAQDFVQWLVAGG-NH2
modifications: N-terminus assumed
SMILES: CCCCCCCCCCCCCCCC(=O)N[C@@H](CCC(=O)NCCCC[C@H](NC(=O)[C@H](Cc1ccc(O)cc1)NC(=O)[C@H](CCC(=O)O)NC(=O)[C@H](CO)NC(=O)[C@H](Cc1ccc(O)cc1)NC(=O)[C@H](CC(=O)O)NC(=O)[C@H](CO)NC(=O)[C@@H](NC(=O)[C@H](Cc1ccccc1)NC(=O)[C@@H](NC(=O)CNC(=O)[C@H](CCC(N)=O)NC(=O)[C@H](CO)NC(=O)[C@@H](N)Cc1c[nH]cn1)[C@@H](C)O)[C@@H](C)O)C(=O)N[C@@H](CC(=O)O)C(=O)N[C@@H](CO)C(=O)N[C@@H](CCCNC(=N)N)C(=O)N[C@@H](CCCNC(=N)N)C(=O)N[C@@H](C)C(=O)N[C@@H](CCC(N)=O)C(=O)N[C@@H](CC(=O)O)C(=O)N[C@@H](Cc1ccccc1)C(=O)N[C@H](C(=O)N[C@@H](CCC(N)=O)C(=O)N[C@@H](Cc1c[nH]c2ccccc12)C(=O)N[C@@H](CC(C)C)C(=O)N[C@H](C(=O)N[C@@H](C)C(=O)NCC(=O)NCC(N)=O)C(C)C)C(C)C)C(=O)O
As for B2, the values for the cAMP EC50 (assay 1) in assay [11], in [12] and in assay [13] were 0.0277 nM, 40.7 nM and 0.0422 nM, respectively.

B3: g846 (peptide)
peptide: HSQGTFTSDYSEYK([γGlu-Palmitoyl])DSERARDFVAWLVAGG-NH2
modifications: N-terminus assumed
SMILES: CCCCCCCCCCCCCCCC(=O)N[C@@H](CCC(=O)NCCCC[C@H](NC(=O)[C@H](Cc1ccc(O)cc1)NC(=O)[C@H](CCC(=O)O)NC(=O)[C@H](CO)NC(=O)[C@H](Cc1ccc(O)cc1)NC(=O)[C@H](CC(=O)O)NC(=O)[C@H](CO)NC(=O)[C@@H](NC(=O)[C@H](Cc1ccccc1)NC(=O)[C@@H](NC(=O)CNC(=O)[C@H](CCC(N)=O)NC(=O)[C@H](CO)NC(=O)[C@@H](N)Cc1c[nH]cn1)[C@@H](C)O)[C@@H](C)O)C(=O)N[C@@H](CC(=O)O)C(=O)N[C@@H](CO)C(=O)N[C@@H](CCC(=O)O)C(=O)N[C@@H](CCCNC(=N)N)C(=O)N[C@@H](C)C(=O)N[C@@H](CCCNC(=N)N)C(=O)N[C@@H](CC(=O)O)C(=O)N[C@@H](Cc1ccccc1)C(=O)N[C@H](C(=O)N[C@@H](C)C(=O)N[C@@H](Cc1c[nH]c2ccccc12)C(=O)N[C@@H](CC(C)C)C(=O)N[C@H](C(=O)N[C@@H](C)C(=O)NCC(=O)NCC(N)=O)C(C)C)C(C)C)C(=O)O
For B3, the cAMP EC50 (assay 1) in assay [11] is 0.0341 nM; in assay [12] it was 11.8 nM; in assay [13] it was 0.0438 nM.

B4: g732 (peptide)
peptide: HGQGTFTSDYSKYK([γGlu-Palmitoyl])DSERARDFVAWLVAGG-NH2
modifications: N-terminus assumed
SMILES: CCCCCCCCCCCCCCCC(=O)N[C@@H](CCC(=O)NCCCC[C@H](NC(=O)[C@H](Cc1ccc(O)cc1)NC(=O)[C@H](CCCCN)NC(=O)[C@H](CO)NC(=O)[C@H](Cc1ccc(O)cc1)NC(=O)[C@H](CC(=O)O)NC(=O)[C@H](CO)NC(=O)[C@@H](NC(=O)[C@H](Cc1ccccc1)NC(=O)[C@@H](NC(=O)CNC(=O)[C@H](CCC(N)=O)NC(=O)CNC(=O)[C@@H](N)Cc1c[nH]cn1)[C@@H](C)O)[C@@H](C)O)C(=O)N[C@@H](CC(=O)O)C(=O)N[C@@H](CO)C(=O)N[C@@H](CCC(=O)O)C(=O)N[C@@H](CCCNC(=N)N)C(=O)N[C@@H](C)C(=O)N[C@@H](CCCNC(=N)N)C(=O)N[C@@H](CC(=O)O)C(=O)N[C@@H](Cc1ccccc1)C(=O)N[C@H](C(=O)N[C@@H](C)C(=O)N[C@@H](Cc1c[nH]c2ccccc12)C(=O)N[C@@H](CC(C)C)C(=O)N[C@H](C(=O)N[C@@H](C)C(=O)NCC(=O)NCC(N)=O)C(C)C)C(C)C)C(=O)O
For B4, the cAMP EC50 (assay 1) is 0.0396 nM in assay [11], 29.4 nM in assay [12] and 0.0232 nM in assay [13].

B5: g777 (peptide)
peptide: HSQGTFTSDYSKYK([γGlu-Palmitoyl])DSERARDFVAWLVAGG-NH2
modifications: N-terminus assumed
SMILES: CCCCCCCCCCCCCCCC(=O)N[C@@H](CCC(=O)NCCCC[C@H](NC(=O)[C@H](Cc1ccc(O)cc1)NC(=O)[C@H](CCCCN)NC(=O)[C@H](CO)NC(=O)[C@H](Cc1ccc(O)cc1)NC(=O)[C@H](CC(=O)O)NC(=O)[C@H](CO)NC(=O)[C@@H](NC(=O)[C@H](Cc1ccccc1)NC(=O)[C@@H](NC(=O)CNC(=O)[C@H](CCC(N)=O)NC(=O)[C@H](CO)NC(=O)[C@@H](N)Cc1c[nH]cn1)[C@@H](C)O)[C@@H](C)O)C(=O)N[C@@H](CC(=O)O)C(=O)N[C@@H](CO)C(=O)N[C@@H](CCC(=O)O)C(=O)N[C@@H](CCCNC(=N)N)C(=O)N[C@@H](C)C(=O)N[C@@H](CCCNC(=N)N)C(=O)N[C@@H](CC(=O)O)C(=O)N[C@@H](Cc1ccccc1)C(=O)N[C@H](C(=O)N[C@@H](C)C(=O)N[C@@H](Cc1c[nH]c2ccccc12)C(=O)N[C@@H](CC(C)C)C(=O)N[C@H](C(=O)N[C@@H](C)C(=O)NCC(=O)NCC(N)=O)C(C)C)C(C)C)C(=O)O
On to B5, for which the cAMP EC50 (assay 1) in assay [11] stood at 0.00124 nM; in assay [12] it was 4.53 nM; in [13], 0.0274 nM.
